Measured values taken from the supplement of paper PMC12338614.

B1: library; numbered along this chain (parent)
chain: MEVVDPQQLGMFTEGELMSVGMDTFIHRIDSTEVIYQPRRKRAKLIGKYLMGDLLGEGSYGKVKEVLDSETLCRRAVKILKKKKLRRIPNGEANVKKEIQLLRRLRHKNVIQLVDVLYNEEKQKMYMVMEYCVCGMQEMLDSVPEKRFPVCQAHGYFCQLIDGLEYLHSQGIVHKDIKPGNLLLTTGGTLKISDLGVAEALHPFAADDTCRTSQGSPAFQPPEIANGLDTFSGFKVDIWSAGVTLYNITTGLYPFEGDNIYKLFENIGKGSYAIPGDCGPPLSDLLKGMLEYEPAKRFSIRQIRQHSWFRKKHPPAEAPVPIPPSPDTKDRWRSMTVVPYLEDLHGADEDEDLFDIEDDIIYTQDFTVPGQVPEEEASHNGQRRGLPKAVCMNGTEAAQLSTKSRAEGRAPNPARKACSASSKIRRLSACKQQ

Variants of: B1
Experiment: STK11 functional score (HeLa growth suppression), rescaled enrichment; synonymous median = 1, nonsense median = 0 (normalised score)
Conditions: with HeLa; variant type: missense
Description: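 Deep mutational scan (TileSeq/POPCode codon randomisation) of full-length codon-optimised STK11 cDNA integrated at a Bxb1 landing pad (AAVS1) in HeLa cells. Restoring functional STK11 suppresses HeLa proliferation. Variant frequencies were measured by NGS before and after about two weeks of growth. The error-corrected enrichment log-ratio was rescaled so that synonymous median = 1 and nonsense median = 0, scores above 1 were compressed, and codon-level and three biological replicate scores were combined; error is the bootstrapped standard error. Scale: synonymous median = 1, nonsense median = 0; below 0.5 = damaging.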

STK11 functional score, by site and new letter:
L72: K 1.08, N 0.264, Q 1.26, T 1.44, M 0.649, S 0.585, V 1.16, D 1.51, A 0.81, R 0.386, I 1.19, Y 1.04, W 1.08, H 0.0684, G 1.44
I79: C 0.264, F 0.321, Q 1.51, Y -0.0325, S 0.761, W -0.0803, L 0.451, H -0.113, M 0.465, G 0.345, P 0.0986, R 0.967, E 0.0444, V 0.313
K83: Y 1.15, P 1.64, C 1.39, L 0.484, N 1.3, E 1.48, V 1.05, T 0.156, Q 0.343, W 1.53, I 1.29, A 1.58, S 1.7
E65: Y 1.05, W 1.36
L80: N 0.951, E 1.41, I 0.964, H 0.878, R 0.408, G 0.429, W 1.47, M 0.45, S 0.479, Y 1.13, Q 1.45, A 1.21, V 0.484
K84: N 0.967, G 1.47, P 1.52, V 0.24, T 0.646, L 1.64, E 0.845, C 1.68, S 1.71, W 1.14
R86: I 1.24, V 1.4, A 1.26, L 0.854, M -0.183, G 1.3, P 1.3, E 1.6, D 1.68, T 1.69, W 0.178
E70: S 0.896, I 1.54, C 1.39, Q 0.703, R 1.67, G 0.582, L 1.03, Y 1.14, V 1.28, D 1.05, P -0.12, A 1.43
A76: V 1.06, R -0.417, F 0.0284, H 0.362, Y 0.13, G 1.09, I 1.4, Q 0.447, W -0.171, S 1.12, M -0.216, C 1.32, L -0.332
N90: I 0.781, G 1.63, K -0.0122, T 0.558, P 1.08, V 1.17, A 1.14, S 1.21, R 1.01, W 0.707, L 1, D 1.23
K81: D 1.28, N 1.37, G 1.04, T 1.35, R 1.21, H 1.25, F 0.987, I 1.19, A 1.66, L 1.1, P 0.992, V 0.987, Y 1.29, S 0.932, W 0.565, Q 0.882
K78: L 0.107, F 0.0316, I -0.0791, V -0.0951, Y -0.374, W -0.148, N 0.219, H -0.114, G 0.0293, C 0.21, D -0.161, S -0.111, A -0.0486, T 0.086, P -0.226, Q 1.1
R75: M 0.00187, W 0.21, V 1.27, L 0.841, T 0.85, Y 1.5, F 1.08, A 1.68, C 1.55, K 1.51, N -0.061, D 1.68, G 1.56, I 1.18, S 0.619
V77: G 0.0665, P 0.512, W 0.824, I 1.4, L 1.04, T 1.57, R 0.469, D 0.0184, S 0.46, Q 0.597
I88: D 1.58, W 0.401, T 1.48, C 1.07, F 0.793, Q -0.36, V 0.87, G 0.665, R 1.65, M 0.899, S 1.16, Y 1.67, E 1.53, L 1.24
V66: A 1.4, T 1.12, S 0.975, H 1.37, R -0.0455, M -0.0689, D 0.0679, Y 1.12, E 0.0829, N 0.393, Q 1.08, K 1.4, L 1.1, P 0.219, I 0.557, G 0.814, C 1.46, W 0.62, F 0.608
L67: G 0.725, T 0.53, D 0.672, V 0.884, W 0.675, H 0.361, A 0.924, P 0.0421, Y 0.0744, R 0.719
R87: K 0.613, S 0.989, P 1.24, T 1.48, G 1.11, V 1.08, Y 1.6, L 1.18, I 1.45, A 0.186
T71: V 1.04, R 0.849, A 1.48, S 0.618, W 1.13, N 0.961, F 1.17, D 1.46, I 1.11, P 0.376, M 0.604, L 0.974, C 1.33, E 1.37, Q 1.58, G 1.48
D68: V 0.366, P 1.08, N 1.31, G 1.08, S 1.29, A 0.846, Q 0.949, Y -0.0799, W 0.944, L 0.441, R 1.07
S69: P 1.04, K 1.31, A 1.14, G 1.69, Q 0.0756, H 0.304, L 1.24, R 1.1, M 0.689, E 1.23, W 0.118, V 0.644
P89: C 1.29, I 1.41, V 0.683, A 1.1, Q 1.4, W 1.08, N 1.67, Y 0.644, S 0.816, G 0.213, D 0.0497, R 0.754, E 1.68, M 1.55, H 1.3, L 0.532, T 0.786
C73: Y 0.412, S 1.38, T 1.6, I 0.566, L 1.19, E 1.7, W 0.426, D 1.49, M 1.7, R 1.21, F 0.572, G 1, V 1.55, A 1.69, P 0.227
R74: T -0.214, F 0.896, H 1.6, C 1.11, I 1.15, L 1.42, V 0.653, S 0.519, K 1.11, A 0.0507, P 1.27
L85: W 1.16, E 1.7, G 0.21, P 1.41, S 1.29, I 1.56, T -0.0975, C 1.1, Y 0.234, V 1.15, A 1.62
K82: Q 1.7, C 1.23, D 1.17, W 1.33, R 1.66, H 1.08, A 1.43, P 1.69, S 1.15, T 1.56, E 1.36, G 1.23, I 1.3, L 1.49, V 0.966, F 0.966
